From US20260174875A1 (Novo Nordisk A/S, priority 2023, published 2026)
Read-outs that look alike come from different tables or passages of the source. Numbered stars: 1 amine (or outer) side, 2 acyl side, 3 side chain; on linkers, the order of the positions; unused ones are H or OH. Square brackets hold non-standard residues; d marks the D form. Side chains are listed from the residue outwards. * marks the point of attachment. Chem. 22 = C20 diacid gamma-Glu, O=C(O)CCCCCCCCCCCCCCCCCCC(=O)N[C@@H](CCC(=O)*)C(=O)O; C20 diacid = O=C(O)CCCCCCCCCCCCCCCCCCC(=O)*; C18 diacid = O=C(O)CCCCCCCCCCCCCCCCC(=O)*; γGlu = O=C(O)[C@H](CCC(=O)[*:2])N[*:1]; Chem. 28 = not defined here; AEEA = NCCOCCOCC(=O)O; Aib = CC(C)(N)C(=O)O

What was measured:
[1] = molecular target: T1, human GLP-1 receptor (hGLP-1R) (Homo sapiens, UniProt P43220); assay: GLP-1 receptor assay, method A (CRE-luciferase reporter, BHK cells); assay type: cell-based
T1 construct: expressed in transfected cells
T1 sequence (P43220 24-463): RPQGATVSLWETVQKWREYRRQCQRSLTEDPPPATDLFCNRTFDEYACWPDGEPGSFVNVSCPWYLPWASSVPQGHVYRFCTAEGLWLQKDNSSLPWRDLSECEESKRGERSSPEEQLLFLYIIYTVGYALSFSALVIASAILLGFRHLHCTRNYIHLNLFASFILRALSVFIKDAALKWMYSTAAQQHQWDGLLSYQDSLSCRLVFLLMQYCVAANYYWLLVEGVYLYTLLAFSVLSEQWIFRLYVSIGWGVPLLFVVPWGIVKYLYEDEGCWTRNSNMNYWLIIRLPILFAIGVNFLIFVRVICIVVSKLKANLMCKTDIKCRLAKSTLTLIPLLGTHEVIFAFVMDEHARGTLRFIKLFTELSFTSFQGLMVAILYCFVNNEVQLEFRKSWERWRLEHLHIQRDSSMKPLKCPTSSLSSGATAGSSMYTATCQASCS
Procedure, shortened: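 hGLP-1R BHK CRE-Luc cells, thawed, in DMEM (no phenol red)/10 mM HEPES/1% ovalbumin/0.1% Pluronic F-68 ± 1% (w/v) HSA; 3 h, 37° C, 5% CO2; steadylite Plus, 30 min RT, luminescence.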

[2] = molecular target: T2, human GIP receptor (hGIPR) (Homo sapiens, UniProt P48546); assay: GIP receptor assay, method A (CRE-luciferase reporter, BHK cells); assay type: cell-based
T2 construct: expressed in transfected cells
T2 sequence (P48546 22-466): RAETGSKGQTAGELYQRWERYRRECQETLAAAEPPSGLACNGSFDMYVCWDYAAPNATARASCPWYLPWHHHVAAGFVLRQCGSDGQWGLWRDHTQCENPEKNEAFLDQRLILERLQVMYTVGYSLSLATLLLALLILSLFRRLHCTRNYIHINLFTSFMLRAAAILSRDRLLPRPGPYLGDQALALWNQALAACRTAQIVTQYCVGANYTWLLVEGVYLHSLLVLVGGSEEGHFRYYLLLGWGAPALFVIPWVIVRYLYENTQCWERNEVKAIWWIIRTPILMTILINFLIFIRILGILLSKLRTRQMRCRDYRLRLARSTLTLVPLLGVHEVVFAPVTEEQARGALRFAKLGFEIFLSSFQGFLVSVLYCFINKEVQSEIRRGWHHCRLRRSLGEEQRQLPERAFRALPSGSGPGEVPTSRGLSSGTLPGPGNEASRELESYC
Procedure, shortened: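 Receptor activation was read as luciferase luminescence in hGIPR-expressing BHK CRE-Luc cells after 3 h compound exposure at 37 °C. Titrations (10-fold, 7 points, duplicate) ran in buffer containing 1% ovalbumin, with 1% HSA final or without; EC50 in pM fitted by four-parameter logistic model, Hill slope shared.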

[3] = molecular target: T3, human amylin receptor (hAMYR3) (Homo sapiens, UniProt O60896+P30988); assay: Amylin receptor assay, method A (CRE-luciferase reporter, BHK cells); assay type: cell-based
T3 construct: host or cells: BHK cells (Hollex-1 line expressing hCTR(a) and CRE-Luc), further transfected with human RAMP3

human GLP-1 receptor = human GLP-1 receptor (human, UniProt P43220 24-463); assay: cell-based or functional assay
human GIP receptor = molecular target: T4, human GIP receptor (human, UniProt P48546 22-466); assay: cell-based or functional assay
T4 sequence (looked up): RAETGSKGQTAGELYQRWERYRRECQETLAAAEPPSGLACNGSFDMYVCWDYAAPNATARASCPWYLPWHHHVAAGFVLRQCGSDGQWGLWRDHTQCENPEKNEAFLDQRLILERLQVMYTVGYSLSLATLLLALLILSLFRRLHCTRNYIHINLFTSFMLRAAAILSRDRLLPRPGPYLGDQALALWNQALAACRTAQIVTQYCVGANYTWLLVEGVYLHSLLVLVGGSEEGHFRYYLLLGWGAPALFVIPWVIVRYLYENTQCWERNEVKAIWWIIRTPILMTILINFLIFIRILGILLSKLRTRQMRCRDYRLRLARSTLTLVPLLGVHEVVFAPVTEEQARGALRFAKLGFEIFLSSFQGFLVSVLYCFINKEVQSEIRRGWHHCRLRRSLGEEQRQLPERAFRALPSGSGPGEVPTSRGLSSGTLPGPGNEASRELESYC

[4] = molecular target: T5, human amylin-3(a) receptor (human, UniProt P30988 25-474; O60896 24-148); assay: cell-based or functional assay
T5 sequence (looked up) 1: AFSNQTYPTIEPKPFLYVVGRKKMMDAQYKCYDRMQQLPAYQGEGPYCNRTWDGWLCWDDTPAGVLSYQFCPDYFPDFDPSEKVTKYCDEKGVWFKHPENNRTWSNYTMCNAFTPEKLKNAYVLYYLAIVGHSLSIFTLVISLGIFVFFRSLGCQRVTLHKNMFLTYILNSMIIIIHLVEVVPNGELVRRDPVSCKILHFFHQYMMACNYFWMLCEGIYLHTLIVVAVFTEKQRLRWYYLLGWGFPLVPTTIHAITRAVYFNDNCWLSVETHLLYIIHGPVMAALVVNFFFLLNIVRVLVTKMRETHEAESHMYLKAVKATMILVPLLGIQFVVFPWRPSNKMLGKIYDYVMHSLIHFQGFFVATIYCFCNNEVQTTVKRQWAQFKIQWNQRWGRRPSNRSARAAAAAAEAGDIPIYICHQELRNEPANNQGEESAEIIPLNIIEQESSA
T5 sequence (looked up) 2: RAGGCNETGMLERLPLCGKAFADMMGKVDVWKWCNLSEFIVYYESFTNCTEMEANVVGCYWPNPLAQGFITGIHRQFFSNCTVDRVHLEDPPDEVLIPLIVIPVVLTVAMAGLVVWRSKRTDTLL

[5] = method A, absence of HSA, read-out: hGLP-1R Potency, no HSA, EC50
[6] = method A, absence of HSA, read-out: hGIPR Potency, no HSA, EC50
[7] = method A, absence of HSA, read-out: hAMYR3 Potency, no HSA, EC50

Molecule | EC50 ([1]; hGLP-1R Potency, 1% HSA, EC50, method A, in the presence of 1% HSA) | EC50 [1, 5] | EC50 ([2]; hGIPR Potency, 1% HSA, EC50, method A, in the presence of 1% HSA) | EC50 [2, 6] | EC50 ([3]; hAMYR3 Potency, 1% HSA, EC50, method A, in the presence of 1% HSA) | EC50 [3, 7] | hGLP-1R Potency, no HSA, EC50 [pM] (human GLP-1 receptor) | hGIPR Potency, no HSA, EC50 [pM] (human GIP receptor) | hAMYR3 Potency, no HSA, EC50 [pM] [4]
Y[Aib]EGTFTSDYSILLEEQAAREFIEWLLAGGPSSGEASHLSTAQTQRLSAELHRLATLPK([AEEA-AEEA-γGlu-C18 diacid])TETGSGSP-NH2 [Compound 81] | 0.0514 nM | 0.016 nM | 15.8 pM | 3.31 pM | 188 pM | 4.07 pM | – | – | –
Y[Aib]EGTFTSDYSILLEEQAAREFIEWLLAGGPSSK([AEEA-AEEA-γGlu-C18 diacid])APPPSGGGEASELSTAALGRLSAELHRLATLPRTETGSGSP-NH2 [Compound 31] | – | 0.0478 nM | – | 4.73 pM | – | 2.69 pM | – | – | –
Y[Aib]EGTFTSDYSILLEEQAAREFIEWLLAGGPSSK([γGlu-C20 diacid])APPPSGGGEASELSTAALGRLSAELHRLATLPRTETGSGSP-NH2 [Compound 42] | – | 0.0613 nM | – | 8.01 pM | – | 3.42 pM | – | – | –
Compound 35 (reading uncertain) peptide: Y[Aib]EGTFTSDYSILLEEQAAREFIEWLLAGGPSK(Chem. 28)GEASHLSTAQTARLSAELHELATLPRTETGSGSP-NH2 | – | – | – | – | – | – | 23.3 pM | 1.97 pM | 4.21 pM
Compound 44 (reading uncertain) peptide: H[Aib]HGTFTSDYSILLEEQAAREFIEWLLAGGPSK(Chem. 28)GALAQTLGTNEASELSTAALGRLSAELHRLATLPRTETGSGSP-NH2 | – | – | – | – | – | – | 3.68 pM | 6.3 pM | 3.8 pM
Compound 42 (peptide) peptide: Y[Aib]EGTFTSDYSILLEEQAAREFIEWLLAGGPSSK(Chem. 22)APPPSGGGEASELSTAALGRLSAELHRLATLPRTETGSGSP-NH2 | – | – | – | – | – | – | 61.3 pM | 8.01 pM | 3.42 pM
Compound 34 (reading uncertain) peptide: Y[Aib]EGTFTSDYSILLEEQAAREFIEWLLAGGPSK(Chem. 28)GEASHLSTAQTQRLSAELHELATLPRTETGSGSP-NH2 | – | – | – | – | – | – | 21.7 pM | 1.7 pM | 6.81 pM
Compound 41 (peptide) peptide: Y[Aib]EGTFTSDYSILLEEQAAREFIEWLLAGGPSK(Chem. 22)GAPPPSGGGEASELSTAALGRLSAELHRLADLPRTETGSGSP-NH2 | – | – | – | – | – | – | 40.8 pM | 5.02 pM | 6.72 pM
Compound 40 (reading uncertain; also: VARIANT 50 Aib (position 50 is T), mods: Aib at 2) peptide: Y[Aib]EGTFTSDYSILLEEQAAREFIEWLLAGGPSK(Chem. 28)GGGGEGGGEGEASHLSTAQTQRLSAELHELATLPRTETGSGSP-NH2 | – | – | – | – | – | – | 23.3 pM | 1.63 pM | 5.49 pM
Compound 33 (reading uncertain) peptide: Y[Aib]EGTFTSDYSILLEEQAAREFIEWLLAGGPSK(Chem. 28)GAPPEASELSTAALGRLSAELHELATLPRTETGSGSP-NH2 | – | – | – | – | – | – | 32.1 pM | 3.11 pM | 10.3 pM
